Reference: the supplement of paper PMC10567573
± gives the standard deviation.

Experiment: protein stability index of a GFP-peptide fusion (GPS, HEK-293T) (PSI 1-6); higher = more stable
[1] = treatment: DMSO, c terminus: a fixed tail appended
[2] = treatment: MLN4924 1 uM, 8 h, c terminus: a fixed tail appended
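Further: 24-mer peptide tiles fused after GFP, lentivirally expressed, FACS-sorted into six equal bins by GFP/DsRed ratio, decoded by Illumina sequencing, PSI is the read-weighted mean bin number.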

Sequence	protein stability index [1]	protein stability index [2]	protein stability index (treatment: DMSO, c terminus: native)	protein stability index (treatment: MLN4924 1 uM, 8 h, c terminus: native)
PAQLSEDITRYYLCLQLRDDIVSG [EPB41L3]	2.3 ± 0.24	2.43 ± 0.35	–	–
CRREAFRRLGNGVSDDLSSEEDGE [PHTF1]	4.94 ± 0.19	4.77 ± 0.13	–	–
GLSQGLVDREKGLSAEPGWQAKRE [CHGA]	4.92 ± 0.29	4.84 ± 0.4	–	–
NNQEEETEFKELDGLREALANLRG [CCDC89]	4.71 ± 0.29	4.58 ± 0.4	–	–
RVQAALVWERPARSALWCLGLNAA [RETREG3]	2.1 ± 0.71	2.38 ± 0.14	–	–
SLLLKKPLRVDLILENTSKVPAPK [NOP53]	2.81 ± 0.16	2.98 ± 0.15	–	–
KETELPFPKQILDQNNVIENEETG [MIA2]	–	5.09 ± 0.62	–	–
CSQHWGGMASFRFPETTFISVTAY [TBX6]	3.18 ± 0.6	2.85 ± 0.47	–	–
HGAHKHHPIEEAAEEHREKLLKQM [TRIM43]	5.17 ± 0.24	5.14 ± 0.14	–	–
DGASQDCPPLPAGVSFHIDSAELE [FBXO34]	5.39 ± 0.14	5.4 ± 0.16	–	–
KSVAWEGGACPAFLPSLRPPPLTS [NCF4]	3.12 ± 0.36	3.11 ± 0.078	–	–
IVEVLGIPPAAMLDQAPKARKYFE [DYRK1B]	2.65 ± 0.42	2.93 ± 0.14	–	–
YLTEGLLQFTILLSLIGVRVDVDT [NFE2L1]	2.66 ± 0.15	3.25 ± 0.35	–	–
GWGDCVWLPYLYTLQGLYLVYHPV [DHCR7]	3.81 ± 0.74	3.25 ± 0.55	–	–
FEQLPDDVAISANIADIEEKRGFT [NCF4]	5.03 ± 0.33	5.05 ± 0.21	–	–
SGTPQAGTPSPSRSRDSNSGPEEP [RTN2]	5.35 ± 0.068	5.48 ± 0.28	–	–
EEPCSPGLLQDQGSGLSSRFEEPK [CBY2]	5.4 ± 0.19	5.29 ± 0.34	–	–
KERKLECLPPEPSPDDPESVKIIF [FAF2]	3.97 ± 0.22	4.04 ± 0.16	–	–
AGGDVPHKTHQAPASASSLPGTGA [DYRK1B]	4.89 ± 0.099	4.87 ± 0.28	–	–
GPILQKDYVQLENQWETPPEDLQT [ZNF449]	4.94 ± 0.11	5 ± 0.28	–	–
SPVAHKHLSRQKIDPLLYMTEWFM [TBC1D10A]	2.19 ± 0.18	2.23 ± 0.16	–	–
AEDWFFSKTEELNREVATNSELVQ [KRT17]	4.87 ± 0.2	4.84 ± 0.07	–	–
ERPYGCDECEKAYFYMSCLVKHKR [ZNF649]	2.48 ± 0.16	2.81 ± 0.28	–	–

Sequence	protein stability index [1]	protein stability index [2]	protein stability index (treatment: DMSO, c terminus: native)	protein stability index (treatment: MLN4924 1 uM, 8 h, c terminus: native)
ESTELMTHLEAQNRIKGCHDHLTL [PDLIM4]	3.83 ± 0.13	3.88 ± 0.15	–	–
PDVVVRSFMTWLRSYIKLFQAPCQ [MED27]	2.06 ± 0.19	2.12 ± 0.28	–	–
DLMKRLRFALIPAPELVERVQSVD [KLHL14]	2.16 ± 0.14	2.3 ± 0.21	–	–
MELLTNNLKFITDPFVCRLRHLSP [OR4A15]	2.17 ± 0.22	2.58 ± 0.38	–	–
TLLLRLNATDPDEGTNGQLDYSFG [PCDHGC5]	2.88 ± 0.36	3.11 ± 0.28	–	–
DVAISANIADIEEKRGFTSHFVFV [NCF4]	2.23 ± 0.6	2.55 ± 0.47	–	–
AGFAQLTHLLMGLAGGKLILSLEG [HDAC6]	3.56 ± 0.82	3.05 ± 0.82	–	–
DPLSPMTASSLLSFAELFSFMLQD [FEM1C]	2.71 ± 0.49	2.42 ± 0.51	–	–
TVKLLVEEKADVLARGPLNQTALH [RIPK4]	3.35 ± 0.58	3.4 ± 0.37	–	–
ERLTKQEKRPLFLAPDFDRWLDES [HACD3]	3.87 ± 0.21	3.93 ± 0.38	–	–
GAEPSAPGGGGSPGACPALGTKSC [RTN3]	5.36 ± 0.26	5.4 ± 0.26	–	–
TGYLSSMVGLILGPFGVNHGVELH [PCMTD2]	3.17 ± 0.31	2.78 ± 0.4	–	–
GLVDFRDVALALAALDGGRSLEEL [LPCAT4]	2.51 ± 0.34	3.17 ± 0.33	–	–
HCNLFVYSSSKGSLRLCDMRAAAL [PPP2R2C]	2.6 ± 0.69	2.63 ± 0.35	–	–
AGILSNLTCNNYKNKMMVCQVGGI [CTNNB1]	2.17 ± 0.3	2.11 ± 0.37	–	–
ESFLAWKKRKRQEKIDKLEQDMER [ZC3H15]	3.8 ± 0.2	4.22 ± 0.33	–	–
QSQLICILKRRSDEALERCQILEL [CCDC89]	2.52 ± 0.14	2.04 ± 0.44	–	–
SDNMSHLMVDFAQERQMLQALKFL [FSD1]	2.55 ± 0.3	2.49 ± 0.23	–	–
ISLMYGGSKRKSSFFSSPPYFED [SLA]	–	–	2.22 ± 0.22	2.27 ± 0.27
MASVRIREAKEGDCGDILRLIREL [SAT2]	3.01 ± 0.17	3.23 ± 0.37	–	–
QNVRNHIHSCFSDVTCFLLPHPGL [ATL3]	2.49 ± 0.65	2.29 ± 0.55	–	–
EMPTQPGKPLIPPMNRRNILVMKH [NETO1]	3.21 ± 0.045	3.27 ± 0.24	–	–
DRTFTLKTVLMIAIQLLSRMEYVH [CSNK1G1]	3.15 ± 0.067	2.65 ± 1.1	–	–

Sequence	protein stability index [1]	protein stability index [2]	protein stability index (treatment: DMSO, c terminus: native)	protein stability index (treatment: MLN4924 1 uM, 8 h, c terminus: native)
QEFAARAAKQLEYQQLEDDKLSQK [EPB41L3]	5.17 ± 0.81	–	–	–
ALKYWKKAMNMRYSDRTNIISKPV [FEM1C]	2.5 ± 0.52	2.28 ± 0.31	–	–
GPESPPPPYSRLSPRDEYKPLDLS [SMAD6]	4.67 ± 0.15	4.78 ± 0.2	–	–
STSEESWTDSEVDSSCSGQPIHLW [SPDEF]	4.21 ± 0.32	4.37 ± 0.25	–	–
ELERLIDKAMKKDGLVGMAIVGGM [FIS1]	2 ± 0.29	2.46 ± 0.37	–	–
ETLLKVDLENRCQSLTEDLEFRKS [LMNB1]	4.42 ± 0.22	4.43 ± 0.2	–	–
EALNERHSIINALKAKLQMTEAAL [LRRC45]	2.66 ± 0.2	2.91 ± 0.3	–	–
HLEVKFMNPYNAVLTKKFQVTMRG [FBXO39]	2.17 ± 0.22	2.28 ± 0.22	–	–
PEYREWNPELIKPKKLLNPVKASR [FAM107A]	3.89 ± 0.13	4.09 ± 0.39	–	–
LRQHGPPNIVVAIAGNKCDLIDVR [RAB22A]	2.46 ± 0.39	2.4 ± 0.52	–	–
TPVIAATPVPTITANVTSVPVPPA [BRD3]	4.53 ± 0.23	4.52 ± 0.047	–	–
DHGCEQLCLNTEDSFVCQCSEGFL [MATN2]	4.18 ± 0.21	4.06 ± 0.3	–	–
GPHPKSKIENGYPLHAPEAYFPYF [CDC14A]	2.53 ± 0.21	2.69 ± 0.13	–	–
PVENFFVKCNGALINTSDTVQHGA [SDE2]	3.07 ± 0.12	3.08 ± 0.26	–	–
VNADIEKVNQNQAKRCTVIGGSGF [NSDHL]	3.79 ± 0.2	3.87 ± 0.19	–	–
GAAFRDHQLLEPIRDFEARKCPVH [TRIM29]	3.73 ± 0.26	3.88 ± 0.17	–	–
QVLEMKNQQIHEQEKKILELEKLA [MTUS2]	4.68 ± 0.31	4.62 ± 0.45	–	–
DVPVIPLDVVDNQTEKLDTNITEV [CASP6]	5.19 ± 0.067	5.14 ± 0.3	–	–
PHQREKIDKEIELHRILHHKHVVQ [PLK2]	3.48 ± 0.19	3.73 ± 0.34	–	–
YSHEVSLTADSRKSHLIFPQPNYA [PCDHGA10]	2.79 ± 0.48	2.74 ± 0.29	–	–
HRTHTGERPYGCDECEKAYFYMSC [ZNF649]	2.68 ± 0.17	2.54 ± 0.26	–	–
CMWSKKCSGVACLVKDNPQRSYFL [WASL]	2.26 ± 0.29	2.04 ± 0.27	–	–
LMPGMPPGMPPPVPRPGIPPMTQA [ZNF207]	4.01 ± 0.34	4.2 ± 0.31	–	–

Sequence	protein stability index [1]	protein stability index [2]	protein stability index (treatment: DMSO, c terminus: native)	protein stability index (treatment: MLN4924 1 uM, 8 h, c terminus: native)
KLPSRRQPGLLHLQSCGDLHTFTP [FAM189A2]	4.92 ± 0.19	4.94 ± 0.15	–	–
PVNPELTAGPITGLVYRLNRFRVE [TRIM43]	2.71 ± 0.29	2.85 ± 0.33	–	–
DAAGHGFCYCAGSHKRKRSSGSFC [GMCL1]	3.08 ± 0.22	3.35 ± 0.15	–	–
RTITFEQFQEALEELAKKRFKDKS [TPPP]	2.54 ± 0.11	2.74 ± 0.43	–	–
MAAHLKKRVYEEFTKVVQPQEEIA [INTS4]	3.67 ± 0.093	3.68 ± 0.7	–	–
DLEAQMESLKEELLSLKQNHEQEV [KRT33B]	4.95 ± 0.32	4.96 ± 0.22	–	–
GGKRRRDDISVDSLDFTKKILHTA [PPP2R2C]	3.17 ± 0.21	3.77 ± 0.36	–	–
DVAEGYRKLSLKGHNDWVMDVAIS [WDR88]	2.47 ± 0.31	2.69 ± 0.5	–	–
TLALEYTYGRRAKGHNTPKDIAHF [DYNC2LI1]	2.74 ± 0.071	2.83 ± 0.22	–	–
KRLKERSLDTLLEAVESRGGVPGG [SMAD6]	4.32 ± 0.16	4.72 ± 0.12	–	–
GPEDLSYQIYDVSGESNSAVSTED [LARP4]	5.39 ± 0.17	5.44 ± 0.13	–	–
NVPSSSLPAQPNRKPGMSSTARRS [CHMP4C]	4.9 ± 0.32	4.99 ± 0.13	–	–
SQDVSDCYLELFPAHLYFQAHGSE [PLEKHN1]	2.49 ± 0.19	2.81 ± 0.4	–	–
LGYPYVNSVSSHASSPYISSVQSY [DLX1]	2.29 ± 0.18	2.35 ± 0.27	–	–
EIPDQNIDVEALQVAFGSLYRDDV [GMCL1]	4.58 ± 0.32	4.64 ± 0.094	–	–
IDAVPVDENLFTGEDLDELEEELN [ZC3H15]	5.53 ± 0.21	5.51 ± 0.19	–	–
LDSEKPKKLRFHPKQLYFSARQGE [EHMT1]	3.2 ± 0.038	3.4 ± 0.21	–	–
LLRRDLGVGTSMEGASPLSERCQR [FANCE]	4.01 ± 0.15	4.17 ± 0.083	–	–
EFDYLKSLEIEEKINKIRWLPQQN [PPP2R2B]	2.62 ± 0.21	2.9 ± 0.42	–	–
SAAVPAGQTYVDAGYEVDKIAQNL [CHIT1]	4.39 ± 0.3	4.61 ± 0.46	–	–
